Laboratory results reported in paper PMC4180279 (Biochemistry, 2014).
Substitutions are numbered along the chain they refer to.

B1: GST-PQ: GST-tagged residues 1898–2035 of the rat P/Q channel α1 subunit, encompassing IQ motif and CBD (protein, UniProt P54282 1898-2035, looked up, fragment)
chain: KSTDLTVGKIYAAMMIMEYYRQSKAKKLQAMREEQNRTPLMFQRMEPPSPTQEGGPSQNALPSTQLDPGGGLMAQESSMKESPSWVTQRAQEMFQKTGTWSPERGPPIDMPNSQPNSQSVEMREMGTDGYSDSEHYLP
modifications: GST tag
notes: GST-tagged residues 1898–2035 of the rat P/Q channel α1 subunit, encompassing IQ motif and CBD
B2: GST-CBD: GST-tagged CaM-binding domain, residues 1950–2035 of the rat P/Q channel α1 subunit (protein, UniProt P54282 1950-2035, looked up, fragment)
chain: EGGPSQNALPSTQLDPGGGLMAQESSMKESPSWVTQRAQEMFQKTGTWSPERGPPIDMPNSQPNSQSVEMREMGTDGYSDSEHYLP
modifications: GST tag
B3: GST^IM→EE: GST-PQ with IM residues at positions 1913 and 1914 mutated to glutamic acid (protein, UniProt P54282 1898-2035, looked up, variant I1913E M1914E)
chain: B1 chain with I16E, M17E
modifications: GST tag
notes: GST-PQ with IM residues at positions 1913 and 1914 mutated to glutamic acid
B4: ^myrPQ-YFP: C-terminally YFP-tagged P/Q 1898–2035 with N-terminal myristoylation consensus sequence (protein, UniProt P54282 1898-2035, looked up, fragment)
chain: B1 chain
modifications: N-terminal myristoylation sequence, C-terminal YFP tag

Assays:
[1] = biological target: T1, NCS-1 (Homo sapiens, UniProt P62166); assay: In vitro pull-down binding of NCS-1 to GST-PQ constructs, Western blot densitometry; settings: for average NCS-1 bound: 5 μM GST fusion protein, 5 μM NCS-1, 1 h, 4 °C, pH 7.4, normalized: NCS-1 bound to GST-PQ with Ca2+ = 100%, minimal binding without Ca2+ = 0%, mean of n = 3
T1 construct: His tag (TEV-cleavable) (N, cleaved yes); made in house; host or cells: Escherichia coli BL21(DE3)
T1 sequence (P62166 whole entry, species assumed, the tested form may be a part): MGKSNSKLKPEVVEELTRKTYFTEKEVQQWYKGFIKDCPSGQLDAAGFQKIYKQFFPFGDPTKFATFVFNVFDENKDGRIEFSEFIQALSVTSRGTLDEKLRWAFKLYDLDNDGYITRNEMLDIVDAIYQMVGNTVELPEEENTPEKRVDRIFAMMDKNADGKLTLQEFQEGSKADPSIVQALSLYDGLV

[2] = system: CaM; assay: In vitro pull-down binding of CaM to GST-PQ constructs, Western blot; parameters: species or system human; settings: presence or absence of 1 μM free Ca2+
Text: DNA constructs and molecular biology GST-NCS-1[24] and NCS-1-mCherry[18] plasmids were as previously described. The coding sequence for human CaM was amplified by polymerase chain reaction (PCR) from oligo-dT(15)-primed HeLa cell RNA and reverse-transcribed first-strand cDNA template with the following primer pair (based on GenBank accession number M19311) containing restriction endonuclease sites (underlined) for subcloning into N-terminal GST tag vector pGex6P-1 (Amersham Biosciences): sense (BamHI), 5′-[…]-3′; antisense (XhoI), 5′-[…]-3′. GST-P/Q, encoding residues 1898–2035 of the rat P/Q channel α1 subunit (GenBank accession number NM_012918) was amplified by PCR from a rat brain single-strand cDNA template with the following primer pair containing restriction endonuclease sites (underlined) for subcloning into pGex6P-1: sense (BamHI), 5′-[…]-3′; antisense (XhoI), 5′-[…]-3′. GST-CBD (residues 1950–2035) of the rat P/Q channel α1 subunit was amplified by PCR from the GST-P/Q template using the P/Q reverse primer and a sense primer containing a BamHI site (underlined) for subsequent subcloning into pGex6P-1 (5′-[…]-3′). GST-P/Q^IM→EE was generated by site-directed mutagenesis of the GST-P/Q plasmid using the QuikChange reagents and protocol (Agilent Technologies) and the following primer pair: sense, 5′-[…]-3′; antisense, 5′-[…]-3′.
For the In vitro protein binding assays, 5 μM GST fusion protein (GST-P/Q, GST-P/Q^IM→EE, or GST-CBD) was immobilized onto 30 μL of glutathione-agarose resin (Thermo Scientific) that had been prewashed in binding buffer (BB) [150 mM KCl, 20 mM HEPES (pH 7.4), 10% (v/v) glycerol, 5 mM NTA, 5 mM EGTA, 1 mM DTT, and 0.1% (v/v) NP-40] or BB supplemented with 1 μM free Ca^2+ (BB+Ca^2+) by incubation for 30 min with constant agitation at 4 °C. […]
Nitrocellulose filters were blocked by incubation in a blocking solution [3% (w/v) skim milk powder in PBS] for 1 h at room temperature. […] Densitometry analysis of developed Western blots was performed using Quantity-1 (Bio-Rad). […]

[3] = system: HeLa cells; assay: Localization of fluorescently tagged proteins in HeLa cells, confocal imaging, puncta scoring; format: cell-based; settings: for cells with puncta: 24 h post-transfection, means ± SEM
Text: Myristoylated PQ (residues 1898–2035, ^myrPQ-YFP) was constructed as follows. A DNA fragment encoding the myristoylation sequence taken from ref ([25]) was inserted between the XhoI and HindIII sites of pEYFP-N1 (Clontech) to generate p^myrEYFP-N1. PQ^1898–2035 was amplified by PCR from the existing pGex template with the following primer pair containing restriction endonuclease sites (underlined) for subsequent subcloning into p^myrEYFP-N1: sense (HindIII), 5′-ATAT AAGCTTAAGTCCACGGACCTGACAGTG-3′; antisense (SacII), 5′-ATAT CCGCGGGGGGAGGTAGTGTTCGCTGTC-3′. All constructs were verified by dideoxy sequencing (The Sequencing Service, University of Dundee, Dundee, U.K.).
HeLa cells were cultured in DMEM supplemented with 10% (v/v) fetal bovine serum, 1% (v/v) penicillin/streptomycin, and 1% (v/v) nonessential amino acids. All cells were maintained in a humidified 95% air/5% CO2 atmosphere at 37 °C. Cells were plated onto sterile 13 mm round coverslips at a density of 0.25 × 10^6 cells/well. After 24 h, cells were transiently transfected with the indicated expression vectors using GeneJuice transfection reagent (Novagen) according to the manufacturer’s protocol. For single and double transfections, 1 μg of each plasmid was used.
Twenty-four hours post-transfection, cells on coverslips were washed with phosphate-buffered saline [137 mM NaCl, 2.7 mM KCl, 10 mM Na2PO4, and 2 mM NaH2PO4 (pH 7.4)] and then fixed with 4% (v/v) formaldehyde in PBS for 6 min at room temperature. Coverslips were subsequently air-dried and mounted onto microscope slides using Prolong antifade glycerol (Life Technologies). Fixed cells were imaged using a Leica TCS-SP2 confocal system (Leica Microsystems, Heidelberg, Germany) with a pinhole set to 1 Airy unit and a 63× oil immersion objective with a numerical aperture of 1.3. Images were exported as TIFF files and compiled, processed, and analyzed with ImageJ and CorelDraw X6 applications.

[4] = without Ca2+ (5 mM EGTA, 5 mM NTA)

Molecule | NCS-1 binding (qualitative) ([1]; presence or absence of 1 μM free Ca2+, Western blot) | average NCS-1 bound ([1]; with Ca2+ (1 μM free Ca2+)) [%] | average NCS-1 bound [1, 4] [%] | CaM binding (qualitative) [2] | cellular localization ([3]; HeLa cells, without myrPQ-YFP puncta) | colocalization of soluble mCherry with myrPQ-YFP ([3]; control cotransfection with soluble mCherry, data not shown) | cells with puncta ([3]; control myrPQ-YFP + mCherry, three independent experiments) [%] | cells with puncta ([3]; cotransfected NCS-1-mCherry + myrPQ-YFP, four independent experiments) [%]
B1 | Ca^2+-dependent binding | 100 | 31.2 | Ca^2+-dependent binding |  |  |  | 
B2 |  |  | 4.9 | no detectable binding |  |  |  | 
B3 |  |  | 2.8 | no detectable binding |  |  |  | 
B4 |  |  |  |  | plasma membrane and/or large cytosolic puncta | no colocalization | 43.6 ± 3 | 39.5 ± 9.2
